The values that follow come from paper PMC8973293.

For one assay, the target named is murine FcγRIV (mouse). Nature of the assay: SPR; Biacore T200; analysis of Fc-Fc receptor binding; who was immobilised and the conditions are not given. Background: Surface plasmon resonance follows binding to a sensor surface in real time, without labels.
Assay [1] has as its target human FcγRIIIa-158V (human). The assay is described as above.

B1: HuE71-IgG1 (antibody, V domains shown)
VH: QVQLVQPGDELVKPGASVKLSCKASGYTFTSYWMQWVKQRPGQGLEWIGEINPSNGRTNYNEMFKSKAVLSVDKSVSTAYMQLSSLTAEDTAVYYCALYDGYYAMDYWGQGTLVTVSS
VL: DIVMTQSPSSLAVSVGERVTMSCKSSQSLLYSSNQKNYLAWYQQKPGQSPKLLIYWASTRESGVPDRFSGSGSGTDFTLTISSVKAEDVALYYCQQYHSYPFTFGQGTKLEIK
As usually defined, the Kd is the free concentration of one partner at which half of the binding sites on the other are occupied at equilibrium, for simple one-to-one binding. Low readings indicate a tighter complex, high ones a looser complex. For the molecule B1, the Kd with murine FcγRIV (mouse) was determined as 724 nM; in assay [1] it was 873 nM.

B2: HuE71-IgG1-Afuco (antibody, V domains shown)
VH: B1 VH
VL: B1 VL
Regarding B2, the Kd with murine FcγRIV (mouse) was 227 nM; in assay [1], 286 nM.

B3: Desferrioxamine-HuE71-IgG1-Afuco (antibody, V domains shown)
VH: B1 VH
VL: B1 VL
Consider B3, for which the Kd came out at 219 nM with murine FcγRIV (mouse) and 294 nM in assay [1].

B4: Desferrioxamine-HuE71-IgG1 (antibody, V domains shown)
VH: B1 VH
VL: B1 VL
Regarding B4, the Kd with murine FcγRIV (mouse) was found to be 539 nM; in assay [1], 664 nM.
